These results are taken from publication PMC2688778 (Structure (London, England : 1993), 2009).

Usually Kd stands for the concentration at which binding is half-saturated.

Common to all, as to assay: fluorescence anisotropy
In general terms: Polarisation of emitted light reports the rotation of a fluorescent probe.

One data set has as its target T1, RecE564 WT (Escherichia coli K12, UniProt P15032 564-866).
T1 sequence: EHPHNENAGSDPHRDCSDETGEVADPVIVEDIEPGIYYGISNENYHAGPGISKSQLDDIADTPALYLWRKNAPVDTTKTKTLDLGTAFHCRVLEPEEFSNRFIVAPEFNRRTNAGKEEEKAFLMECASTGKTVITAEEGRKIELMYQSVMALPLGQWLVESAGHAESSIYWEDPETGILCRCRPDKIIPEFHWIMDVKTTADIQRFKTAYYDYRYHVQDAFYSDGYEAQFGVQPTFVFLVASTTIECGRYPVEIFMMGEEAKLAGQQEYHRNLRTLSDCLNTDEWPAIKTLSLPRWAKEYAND

For another data set, the target named is T2, RecE564 R858A (Escherichia coli K12, UniProt P15032 564-866, R858A).
T2 sequence: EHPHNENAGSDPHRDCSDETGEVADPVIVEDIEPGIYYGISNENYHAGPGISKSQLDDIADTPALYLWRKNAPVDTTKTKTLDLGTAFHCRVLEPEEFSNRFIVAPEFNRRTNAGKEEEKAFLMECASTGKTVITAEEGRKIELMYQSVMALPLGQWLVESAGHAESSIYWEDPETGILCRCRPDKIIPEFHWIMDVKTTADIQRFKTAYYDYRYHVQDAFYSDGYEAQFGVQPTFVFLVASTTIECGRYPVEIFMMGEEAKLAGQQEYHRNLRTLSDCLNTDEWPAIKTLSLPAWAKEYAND

A further data set addresses T3, RecE564 Y608A (Escherichia coli K12, UniProt P15032 564-866, Y608A).
T3 sequence: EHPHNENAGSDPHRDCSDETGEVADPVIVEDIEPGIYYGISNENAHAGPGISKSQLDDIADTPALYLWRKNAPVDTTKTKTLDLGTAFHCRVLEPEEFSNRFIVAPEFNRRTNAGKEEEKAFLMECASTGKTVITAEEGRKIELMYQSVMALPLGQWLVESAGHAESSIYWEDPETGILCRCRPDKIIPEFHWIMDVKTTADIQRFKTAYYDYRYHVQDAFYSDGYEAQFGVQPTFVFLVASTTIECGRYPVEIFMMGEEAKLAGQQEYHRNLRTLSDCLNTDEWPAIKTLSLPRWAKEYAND

The target in the next data set is T4, RecE564 E657A (Escherichia coli K12, UniProt P15032 564-866, E657A).
T4 sequence: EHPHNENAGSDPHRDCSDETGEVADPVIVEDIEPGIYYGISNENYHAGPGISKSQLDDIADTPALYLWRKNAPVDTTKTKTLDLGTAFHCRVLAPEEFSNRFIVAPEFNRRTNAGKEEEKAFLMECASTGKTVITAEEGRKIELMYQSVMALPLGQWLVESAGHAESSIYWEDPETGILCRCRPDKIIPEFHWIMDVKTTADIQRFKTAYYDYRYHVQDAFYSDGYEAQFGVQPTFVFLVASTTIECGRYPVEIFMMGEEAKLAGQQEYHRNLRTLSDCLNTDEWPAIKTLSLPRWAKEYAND

The next data set addresses T5, RecE564 H652A (Escherichia coli K12, UniProt P15032 564-866, H652A).
T5 sequence: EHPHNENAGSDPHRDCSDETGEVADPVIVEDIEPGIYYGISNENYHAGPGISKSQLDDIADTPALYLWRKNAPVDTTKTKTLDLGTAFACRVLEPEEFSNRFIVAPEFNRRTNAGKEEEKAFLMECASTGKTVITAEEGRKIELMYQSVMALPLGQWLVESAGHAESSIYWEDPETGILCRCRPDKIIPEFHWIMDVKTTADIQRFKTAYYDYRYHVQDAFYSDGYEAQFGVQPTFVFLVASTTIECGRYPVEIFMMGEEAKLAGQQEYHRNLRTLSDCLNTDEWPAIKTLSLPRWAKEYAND

A further data set has as its target T6, RecE564 K761A (Escherichia coli K12, UniProt P15032 564-866, K761A).
T6 sequence: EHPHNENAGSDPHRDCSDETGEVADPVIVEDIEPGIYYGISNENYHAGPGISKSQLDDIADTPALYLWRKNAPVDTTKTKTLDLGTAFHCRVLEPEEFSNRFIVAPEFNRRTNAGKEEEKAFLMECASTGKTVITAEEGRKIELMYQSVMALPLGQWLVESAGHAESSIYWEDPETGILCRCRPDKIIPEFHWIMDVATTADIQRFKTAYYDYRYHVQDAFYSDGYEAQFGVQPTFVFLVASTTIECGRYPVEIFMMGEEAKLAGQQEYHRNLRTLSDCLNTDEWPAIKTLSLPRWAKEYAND

B1: F25 (dsDNA)
DNA 1: TAGAGCTTAATTGCTGAATCTGGTG
DNA 2: CACCAGATTCAGCAATTAAGCTCTA
For B1, the Kd worked out at 70 ± 2 nM with RecE564 WT; 77 ± 5 nM with RecE564 R858A; 160 ± 10 nM with RecE564 Y608A; 90 ± 10 nM in the data set with RecE564 E657A; 130 ± 10 nM with RecE564 H652A; 130 ± 10 nM in the data set with RecE564 K761A.
